Reference: article PMC7935881

Columns and labels:
[1] = target: no-cys-DgkA (cysteine-free Escherichia coli diacylglycerol kinase) (Escherichia coli); test: solid-state NMR structure; MAS ssNMR, intra- and inter-monomer PRE distance restraints with CS-Rosetta; DgkA reconstituted in bilayers of E. coli membrane total extracts; 272 K
[2] = target: no-cys-DgkA (cysteine-free Escherichia coli diacylglycerol kinase) (Escherichia coli); test: SDS-PAGE; DgkA refolded/reassembled in buffer (8 M urea, 0.2% SDS, 0.08% E. coli membrane total extracts, 0.96% OG, pH 7.8)

stoichiometry N [1]: 3
stoichiometry N [2]: 3
Substance: no-cys-DgkA (cysteine-free Escherichia coli diacylglycerol kinase) (enzyme)
